Substrate: C[C@]12CC[C@@H]3c4ccc(O)cc4CC[C@H]3[C@@H]1CC[C@@H]2O
Experiment: HPLC of estrone (E1) formation
Assay type: biochemical, Microbacterium resistens
Conditions: NAD+ (500 μM in the general assay), pH 7, MSM, 30 °C in the general assay, E2 0.018–0.40 mM

B1: 17β-HSD-0095 (Microbacterium resistens) (protein)
chain: MPTDPALPDPEPTKGNTMNRYEGRRALVTGGGSGIGQATVLRMLAEGGRVVAADVSPAGLADTVEKAGNAAARLTTVEVNVADEASVKAAVATAVDALGGLDVLVNAAGILRSSHTAETTLEQFETILRVNLVGTFLMIRESIPALLDGQDAAVVNFSSTSAMFAHPYMAAYAASKGGVQSMTHALAAEYAKQGIRFTAVQPGSISSGMTDGSGRSGQSAGPGLPEDADMSLFLKLAPAIGQGFAGPEAVAGVVAMLASADGAFITGTEVRIDGGTHF
notes: about 35 kDa on SDS-PAGE
Km: 480 µM

Source: paper PMC10294441, “Characterization of 17β-estradiol-degrading enzyme from Microbacterium sp. MZT7 and its function on E2 biodegradation in wastewater” (Microbial Cell Factories, 2023)
